Source: patent publication US20040072750A1, “Compounds and methods for the modulation of CD154” (priority 2001, published 2004)
“Also recorded” adds a separate entry of the source.

Assays:
[1] = system: platelets; test: Release of sCD154 from stimulated platelets in platelet-rich plasma (ELISA); type: cell-based, human; conditions: for Inhibition of sCD154 Release at >90% Platelet Aggregation Inhibition, % / Potentiation of sCD154 Release, %: TRAP-stimulated platelets, average and SD; for Inhibition of sCD154 Release at >90% Platelet Aggregation Inhibition, %: release without GP IIb-IIIa inhibitor set at 100%; for Potentiation of sCD154 Release, %: maximal potentiation, release without inhibitor set at 100%
Procedure: Platelet-rich plasma (PRP) was prepared from human donors by obtaining blood through a 19-gauge butterfly into PPACK anticoagulant (8.6 ml of 2.1 mM PPACK, Calbiochem, La Jolla, Calif.: final concentration 0.3 mM). Blood was aliquoted into 15 ml polypropylene tubes and centrifuged at 900 rpm for 20 minutes (160×g). The platelet rich plasma (PRP) was carefully removed and pooled in a new tube. Platelet counts were taken and recorded. Aliquots of PRP at 37° C. were then added to 1.5 ml microcentrifuge tubes containing various amounts of eptifibatide. To initiate aggregation, 20 μM ADP 4 μg/mL collagen or 5 μM TRAP6 was added and samples were rocked on a Nutator for 30 minutes at 37° C. The tubes were put on ice and immediately centrifuged at 15,000×g for 10 minutes at 4° C.
The platelet-poor plasma (PPP) supernatant was removed to new tubes and the levels of sCD154 in these samples were measured by ELISA. There was a time-dependent increase in sCD154 release when platelets were aggregated with either ADP or TRAP6.
(§1) In other experiments, various concentrations of eptifibatide, abciximab or tirofiban were added to PRP before the addition of TRAP. In the eptifibatide experiments, the release of βTG from platelet a granules was determined from PPP samples by ELISA. Inhibition of aggregation by GP IIb-IIIa antagonists was determined in PPACK-anticoagulated PRP by light-transmission aggregometry (Chrono-Log) as described in Phillips et al. (1995) J Exp. Med 182:33-40. To assess the effect of aspirin use on the release of sCD154 from platelets, PRP was obtained from 7 donors, incubated with a single concentration of GP IIb-IIIa inhibitor, and stimulated with 20 μmol/L ADP, 5 μmol/L TRAP or 4 μg/mL collagen for 30 minutes while rocking at 37° C. Resultant PPP was measured for sCD154. The same donors then took 325 mg of aspirin for 7 days. PRP was again collected and subjected to the same conditions, and the release of sCD154 was determined. A control reading (no addition of inhibitor) was taken with the agonist 0.5 mmol/L arachidonic acid in citrated PRP to ensure that the aspirin had been taken.

[2] = system: platelets; test: Platelet aggregation in PRP by light-transmission aggregometry; type: cell-based, human; conditions: before and after 7 days of aspirin
Procedure: as §1

[3] = Plasma inflammatory markers after PCI (ELISA); type: in vivo, human
Procedure: (§2) Patients (n=45) undergoing PCI were enrolled. The study was approved by the IRB and all patients signed informed consent. Exclusion criteria included higher risk clinical scenarios mandating, according to institutional clinical practice, the use of GP IIb/IIIa antagonists (i.e., acute ST elevation MI or non q-wave MI with CPK elevation, pain at rest with EKG changes <24 hours, visible thrombus, pain refractory to heparin), pre-procedural GP IIb/IIIa inhibitor treatment, restenotic and graft lesions, and standard conditions excluding GP IIb/IIIa inhibitor use.
(§3) All patients received aspirin and intravenous heparin (50-70U/kg) monitored by activated clotting time (ACT) during the procedure. Patients were administered either no GP IIb/IIIa inhibitor, eptifibatide (180 μg/kg double bolus followed by 2 μg/kg/min for 16 h), or abciximab (0.25 mg/kg bolus intravenously followed by 0.125 μg/kg/min for 12 h) at the discretion of the primary operator. Platelet function was monitored using PPACK-anticoagulated blood and the Accumetrics RPFA device at baseline and 10 min post-final bolus. Interventionalists were blinded to RPFA results and not permitted to modify GP IIb-IIIa inhibitor dosing. Post-PCI, patients received clopidogrel (300 mg PO) followed by 75 mg daily.
Venous blood samples were collected prior to (t=0) and at 30 minutes, 2 hours, and 24 hours after the angioplasty wire was advanced across the lesion. Blood was collected into 10 mL tubes with either EDTA (for sCD 154 analysis) or PPACK (for all other analyses) anticoagulant, centrifuged at 4° C., and stored at −80° C. until analysis.
Inflammatory markers in plasma samples were quantified by commercially available ELISA for sCD154 (Alexis BioChemical) with modification (12), RANTES, IL6, sICAM-1 (BioSource), and CRP (Alpha Diagnostic International).
Primary endpoint data are presented as mean±SE. Data were log transformed to achieve a normal distribution verified by Kolmogorov-Smirnov test for normality. Statistical comparisons were performed using two-way ANOVA to determine a difference in mean values over time between the 3 groups. Pair-wise comparisons were performed when the ANOVA false-positive rate was ≦5%. A Bonferroni corrective for 3 pair-wise comparisons was applied, in which the p-value of […] was used to signify a false-positive rate of 5%. For ANOVA with a false-positive rate of ≧5%, the pair-wise comparisons were reported to be statistically nonsignificant (NS). Baseline and procedural characteristics data were analyzed with standard one way ANOVA for continuous data in more than 3 groups and a student's t-test for comparison of 2 groups. A Mann-Whitney Rank Sum test was used for nominal data. Statistical significance was assumed if the false positive rate was ≦5%.

[4] = system: platelets; test: Platelet function (Accumetrics RPFA) in patients undergoing PCI; type: in vivo, human; conditions: 10 minutes post final bolus
Procedure: as §2, §3

[5] = system: platelets in whole blood; test: Perfusion chamber: thrombus formation of whole blood on protein-coated surface under shear; type: cell-based, human; conditions: with or without Fg
Procedure: The effect of CD154 on the aggregation of platelets under conditions of high shear stress were evaluated. Recombinant CD154 (rCD154 or rCD40L) was compared to fibrinogen (Fg) in its ability to form thrombi as well as in combination with Fg. Controls also included CD154 in which the KGD eptifibatide-recognition sequence was mutated to KGE (CD154(KGE) or CD40L(KGE)). Briefly, a silicone gasket with a flow path height of 127 μm was placed between a flat perfusion chamber (Glycotech, Rockville, Md.) and a protein-coated petri dish as described (Andre, P. et al., Nature Medicine, 8:247-252 (2002)). Petri dishes were coated with rCD40L, Fibrinogen (Fg), rCD40L+Fg, mutated CD40L (CD40L(KGE)), CD40L(KGE)+Fg. In one experiment, the glycoprotein IIb/IIIa antagonist eptifibatide (2 μM) was incubated with whole blood before perfusion over the rCD40L-coated surface. When Fg was coated with either rCD40L or CD40L(KGE), each molecule was deposited at 25 μg/cm^2. Coating of the proteins was performed using the spray method in which 25 μl of a 1 mg/ml protein solution is coated onto the plastic with a retouching air brush resulting in a concentration of 25 μg/cm^2 (Houdijk, WP et al., J. Clin. Invest., 75:531-540 (1985)). Human peripheral blood was collected on PPACK (40 μmol/L final concentration) and perfused for 4 minutes over the protein-coated surface. Shear rates of 1500-1600/s, 500-600/s and 100-200/s, were generated with flow rates of ˜0.6, 0.25 and 0.075 ml/min, respectively. Measurements of thrombotic deposits were performed using the Simple PCI software image analysis program (Technical Instrument, Burlingame, Calif.).

[6] = system: washed platelets; test: Fibrinogen binding to washed platelets and microparticle generation (flow cytometry); type: cell-based, human; conditions: 2 μM protein, 60 minutes at 37° C.; FIG. 10
Procedure: Venous blood was collected from normal donors into ACD buffer (85 mM Sodium Citrate, […] and 71 mM Citric acid) containing 0.05 μg/ml prostaglandin 12(PGI2). Blood was later centrifuged at 160×g for 20 minutes to collect platelet rich plasma (PRP). PRP was centrifuged at 1100×g for 10 minutes to sediment platelets. Platelets were washed twice with CGS buffer (13 mM trisodium citrate, 120 mM sodium chloride and 30 mM dextrose pH 7.0). The first wash had 0.03 μg/ml PGI2. Washed platelets were finally suspended in Tyrodes-Hepes buffer (12 mM sodium bi-carbonate, 138 mM sodium chloride, 5.5 mM glucose, 2.9 mM potassium chloride, 10 mM Hepes, 1 mM calcium chloride and 1 mM magnesium chloride, pH 7.4).
Washed platelets (1×10^7/ml) were incubated for 60 minutes at 37° C. with 2 μM soluble CD154 (sCD154) or mutant sCD154 (D117E mutation in the KGD sequence) in the presence or absence of eptifibatide or anti-CD40 antibody. All incubations had 100 nM Alexa-Fibrinogen (Molecular probes, Eugene, Oreg.). Samples were diluted 10 fold with stain buffer (BD Pharmingen, Los Angeles, Calif.) after incubation and analyzed by flow cytometry (FACSort, BD, San Jose, Calif.).

Q: What does the source list for CCCCS(=O)(=O)N[C@@H](Cc1ccc(OCCCCC2CCNCC2)cc1)C(=O)O [tirofiban]?
A: Inhibition of sCD154 Release at >90% Platelet Aggregation Inhibition, % [1]: 80 ± 5.3%; Potentiation of sCD154 Release, % [1]: 19 ± 7.7%

Q: Which results are given for CC(=O)Oc1ccccc1C(=O)O [aspirin]?
A: platelet aggregation in response to optimal doses of platelet agonists [2]: no effect; release of sCD154 from platelets stimulated with ADP or TRAP ([1]; after aspirin use): unaffected; also recorded: does not block; release of CD154 from platelets activated by collagen ([1]; aspirin, in words): blocks; decrease in the release of sCD154 from collagen-induced platelet aggregates ([1]; donors took 325 mg aspirin for 7 days, collagen 4 μg/mL): 50%

B1: abciximab (antibody, chains of the INN, looked up, V domains shown)
VH: EVQLQQSGTVLARPGASVKMSCEASGYTFTNYWMHWVKQRPGQGLEWIGAIYPGNSDTSYIQKFKGKAKLTAVTSTTSVYMELSSLTNEDSAVYYCTLYDGYYVFAYWGQGTLVTVSA
VL: EIVLTQSPVTLSVTPGDSVSLSCRASRDISNNLHWFQQTSHESPRLLIKYASQSMSGIPSRFSGSGSGTDFTLSINSVETEDFGMYFCQQTNSWPYTFGGGTKLEIK
modifications: Fab
notes: parenteral GP IIb-IIIa antagonist
Q: With B1 as the molecule, how does the “CRP levels after PCI” value ([3]; 2-24 hours after PCI, not statistically significant) read?
A: lowest levels

Q: What about the “plasma RANTES levels after PCI” value ([3]; versus baseline) of the same molecule?
A: not observed

Q: And the “Inhibition of sCD154 Release at >90% Platelet Aggregation Inhibition, %” value [1]?
A: 57 ± 8.2%

Q: What about the “Potentiation of sCD154 Release, %” value [1] of the same molecule?
A: 19 ± 7.5%

Q: And the “Platelet inhibition (% inhibition)” value [4]?
A: 93±4%

B2: CD40L(KGE): CD154 in which the KGD eptifibatide-recognition sequence was mutated to KGE (D117E) (protein, UniProt P29965 113-261, looked up, variant D117E)
CD40 ligand, soluble form: MQKGEQNPQIAAHVISEASSKTTSVLQWAEKGYYTMSNNLVTLENGKQLTVKRQGLYYIYAQVTFCSNREASSQAPFIASLCLKSPGRFERILLRAANTHSSAKPCGQQSIHLGGVFELQPGASVFVNVTDPSQVSHGTGFTSFGLLKL
Q: With B2 as the molecule, how does the “aggregate formation on coated surface” value [5] read?
A: does not induce

Q: What about the “fibrinogen binding to platelets and generation of microparticles” value [6] of the same molecule?
A: did not stimulate
